Residue numbers refer to the chain shown, from its start.
T1: human IL-2Rα (Sino Biological) (human, UniProt P01589 22-213, limits assumed)
T1 construct: Bought recombinant protein; also called IL2RA; CD25
T1 sequence: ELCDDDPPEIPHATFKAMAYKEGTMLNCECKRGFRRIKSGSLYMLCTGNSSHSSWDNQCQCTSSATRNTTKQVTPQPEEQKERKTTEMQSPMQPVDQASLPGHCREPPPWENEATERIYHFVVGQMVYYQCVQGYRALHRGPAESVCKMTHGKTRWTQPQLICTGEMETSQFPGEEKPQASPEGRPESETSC

T2: IL-4R (Sino Biological) (UniProt P24394 26-232)
T2 construct: also called IL-4Ra
T2 sequence (looked up): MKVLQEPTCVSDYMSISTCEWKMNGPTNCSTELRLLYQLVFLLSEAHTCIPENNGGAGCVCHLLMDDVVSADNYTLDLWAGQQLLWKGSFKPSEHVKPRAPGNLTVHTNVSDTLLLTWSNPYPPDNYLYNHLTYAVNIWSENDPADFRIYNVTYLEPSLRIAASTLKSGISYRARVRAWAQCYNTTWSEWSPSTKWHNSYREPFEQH

T3: IL-7R (Sino Biological) (UniProt P16871 21-239)
T3 sequence (looked up): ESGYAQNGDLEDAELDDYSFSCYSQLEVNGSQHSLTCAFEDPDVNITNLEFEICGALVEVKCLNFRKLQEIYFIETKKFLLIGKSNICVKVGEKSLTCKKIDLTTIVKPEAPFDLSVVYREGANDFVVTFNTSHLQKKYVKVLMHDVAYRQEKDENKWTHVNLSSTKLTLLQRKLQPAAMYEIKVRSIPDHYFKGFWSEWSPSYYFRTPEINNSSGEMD

T4: IL-9R (R&D Systems) (UniProt Q01113 41-270, limits assumed)
T4 sequence (looked up): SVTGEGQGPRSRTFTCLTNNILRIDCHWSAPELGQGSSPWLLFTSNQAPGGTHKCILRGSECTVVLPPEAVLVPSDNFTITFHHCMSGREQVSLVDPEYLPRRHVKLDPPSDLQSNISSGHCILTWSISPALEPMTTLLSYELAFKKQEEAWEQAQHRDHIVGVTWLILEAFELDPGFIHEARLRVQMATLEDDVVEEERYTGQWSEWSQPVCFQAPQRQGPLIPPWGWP

B1: BsAb-2 (IL2RB_F09G**IL2RG_F16B) (bispecific antibody, human IgG4, V domains shown)
V domain 1: QVQLQESGPGLVKSSETLSLTCTVSGGSISSSDWWSWVRQPPGKGLEWIGEIDHSGSTNYNPSLMSRVTISVDKSKNQFSLKLSSVTAADTAVYFCARGSWELTDAFDIRGQGTLVTVSS
V domain 2: QVQLVESGGGLVKPGGSLRLSCAASGFTFSDYYMSWIRQAPGKGLEWVSYISSSGSTIYYADSVKGRFTISRDNAKNSLYLQMNSLRAEDTAVYYCARGDAVSITGDYRGQGTLVTVSS
notes: Heavy chain-only bispecific on silenced, stabilised human IgG4 Fc, knobs-into-holes, no light chains; not shown: C-terminal His-tag on the knob chain
B2: BsAb-6 (IL2RB_F18E**IL2RG_F16A) (bispecific antibody, human IgG4, V domains shown)
V domain 1: QVQLVESGGGVVQPGRSLRLSCAASGFTFSSYGMHWVRQAPGKEREWVAVISYDGSNKYYTDSVKGRFTISRDNSKNTLYLEMNSLRAEDTAVYYCARDLDYDVLTGDPVGGFDIWGQGTLVTVSS
V domain 2: B1 V domain 2 with Y50S, S56D, K65Q, I70L, K76E, Y80F
notes: as for B1
B3: BsAb-4 (IL2RB_F09G**IL2RG_F18A) (bispecific antibody, human IgG4, V domains shown)
V domain 1: B1 V domain 1
V domain 2: QVQLVESGGDLVKPGGSLRLSCAASGFTFSDYYMSWLRQAPGKELEWVSHISSSGTTTYYADSVEGRFTITRDNAKNSLYLQMNSLRAEDTAVYYCARGAAVAPGFDSRGQGTLVTVSS
notes: as for B1
B4: BsAb-5 (IL2RB_F09K**IL2RG_F16B) (bispecific antibody, human IgG4, V domains shown)
V domain 1: B1 V domain 1 with G8S, S14P, D33N, D53S, M65K, K82R, A97G
V domain 2: B1 V domain 2
notes: as for B1
B5: BsAb-1 (IL2RB_F09C**IL2RG_F16A) (bispecific antibody, human IgG4, V domains shown)
V domain 1: B1 V domain 1 with S14P, E16G, T23A, A97G, T104S
V domain 2: B1 V domain 2 with Y50S, S56D, K65Q, I70L, K76E, Y80F
notes: as for B1
B6: BsAb-3 (IL2RB_F09G**IL2RG_F16C) (bispecific antibody, human IgG4, V domains shown)
V domain 1: B1 V domain 1
V domain 2: B1 V domain 2 with S30N, Y50H, I70V, K76N, N84H
notes: as for B1

What follows are binders tested against IL-21R (Sino Biological) (UniProt Q9HBE5 20-232) (assay: Octet (BLI) off-rate, antibody captured on AHC sensors).
Procedure: (§1) All off-rate measurements were performed on an Octet Qk384 instrument (ForteBio), in 96-well microplates at 25° C. using anti-human IgG Fc capture (AHC, 18-5005) sensors with a shake speed of 1000 rpm. For off-rate determination, the antibodies/antibody fragments were loaded on the AHC sensors at 5 μg/mL. Following a short baseline in kinetics buffer (0.02% Tween20, 0.1% BSA, 0.05% sodium azide, 1X PBS). Offrate measurements were done for the following: human IL-2Rβ (AcroBiosystems), human IL-2Ry (Sino Biological), cynomolgus IL-2RP (Sino Biological), cynomolgus IL-2Rγ (expressed and purified in house using ExpiCHO expression system followed by Ni-NTA His-tag purification), mouse IL-2Rγ (Sino Biological), mouse IL-2Rβ (Sino Biological), human IL-2Rα (Sino Biological), IL-4R (Sino Biological), IL-7R (Sino Biological), IL-9R (R&D Systems) and IL-21R (Sino Biological). The following antibodies were used as positive controls to verify target binding and reagent quality: anti-human IL-9R (R&D Systems), anti-human IL-21R (R&D Systems), anti-human IL-7R (R&D Systems) and anti-human IL-4Ra (R&D Systems). The loaded sensors were then submerged in wells containing antigen at 100 nM concentration for association step. Dissociation was monitored in kinetics buffer. The capture surfaces were regenerated for 60 s. ForteBio data analysis software was used to fit the data to a 1:1 binding model to extract an association rate and dissociation rate.

Chain of IL-21R (Sino Biological) (Q9HBE5 20-232 limits assumed): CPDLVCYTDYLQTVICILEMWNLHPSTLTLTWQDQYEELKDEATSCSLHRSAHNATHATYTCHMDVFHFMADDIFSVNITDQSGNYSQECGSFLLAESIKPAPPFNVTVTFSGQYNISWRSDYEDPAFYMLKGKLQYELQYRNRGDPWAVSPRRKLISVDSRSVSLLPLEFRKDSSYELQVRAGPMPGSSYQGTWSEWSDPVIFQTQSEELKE

binding result | Binder
no binding (tested: antigen at 100 nM) | B1
no binding (tested: antigen at 100 nM) | B2
no binding (tested: antigen at 100 nM) | B3
no binding (tested: antigen at 100 nM) | B4
no binding (tested: antigen at 100 nM) | B5
no binding (tested: antigen at 100 nM) | B6

What follows are binders tested against T1, human IL-2Rα (Sino Biological) in the same assay as above.
Procedure: as §1

binding result | Binder
no binding (tested: antigen at 100 nM) | B1
no binding (tested: antigen at 100 nM) | B2
no binding (tested: antigen at 100 nM) | B3
no binding (tested: antigen at 100 nM) | B4
no binding (tested: antigen at 100 nM) | B5
no binding (tested: antigen at 100 nM) | B6

The binders below were run against T2, IL-4R (Sino Biological) in the same assay as above.
Procedure: as §1

binding result | Binder
no binding (tested: antigen at 100 nM) | B1
no binding (tested: antigen at 100 nM) | B2
no binding (tested: antigen at 100 nM) | B3
no binding (tested: antigen at 100 nM) | B4
no binding (tested: antigen at 100 nM) | B5
no binding (tested: antigen at 100 nM) | B6

Each binder was assayed against T3, IL-7R (Sino Biological) in the same assay as above.
Procedure: as §1

binding result | Binder
no binding (tested: antigen at 100 nM) | B1
no binding (tested: antigen at 100 nM) | B2
no binding (tested: antigen at 100 nM) | B3
no binding (tested: antigen at 100 nM) | B4
no binding (tested: antigen at 100 nM) | B5
no binding (tested: antigen at 100 nM) | B6

The binders below were run against T4, IL-9R (R&D Systems) in the same assay as above.
Procedure: as §1

binding result | Binder
no binding (tested: antigen at 100 nM) | B1
no binding (tested: antigen at 100 nM) | B2
no binding (tested: antigen at 100 nM) | B3
no binding (tested: antigen at 100 nM) | B4
no binding (tested: antigen at 100 nM) | B5
no binding (tested: antigen at 100 nM) | B6

What follows are binders tested against T5, cynomolgus IL-2Rβγ receptor on cynomolgus T-cells (PBMCs) (cynomolgus) (assay: flow cytometry cell binding on cynomolgus CD8+ T-cells (PBMC), gMFI as fold over secondary antibody only).
T5 construct: whole, on cells; Endogenous receptor on primary cynomolgus cells
Procedure: All washes and dilutions of cells, antibodies, and reagents were performed using flow buffer (1X PBS, 1% BSA, 0.1% NaN3, pH 7.4). Staining was performed in a round-bottom 96-well plate (Corning) seeded at 100,000 cells/well, and all incubations were performed at 4° C. or on ice. […] The cells were washed twice with 200 μL flow buffer. The cells were then incubated for 30 minutes with detection antibody (Goat F(ab′)2 Anti-Human IgG-PE, Southern Biotech) at 0.625 μg/mL in flow buffer. Following 2 more washes, the cells were resuspended in a final volume of 150 μL of flow buffer. The cells were analyzed on a BD FACSCelesta or a Guava easyCyte 8-HT flow cytometer. At least 3000 events were collected, and PE geometric mean fluorescence intensity was plotted as a fold over background (cells incubated with secondary detection antibody only). In some secondary screens involving human or cynomolgus PBMCs, an additional CD4 antibody (BioLegend) and/or CD8 antibody (BioLegend) was included to further characterize cell binding.

EC50 (read off the curve) [nM] | Binder
~2 | B1
~20 | B2
~10 | B3
~4 | B4
~20 | B5
~10 | B6
